How the values were obtained:
[1] = system: Tnp sC7v2.0 purified R8C,E58V,E344K,L372Q; test: cleavage_in_vitro; conditions: dam methylation of adenines in the two GATC sites (four methyl groups per end); in vitro transposition, 3 h, 37C, 280 nM Tnp, 35.5 nM pGT4
Tnp L372Q plus one L372Q = test: cell_activity; conditions: mating out, dam+ strain
[2] = system: sC7 E58V minus one R8C,A157T,T171S,D217A,E344K,L372Q; test: cell_activity; conditions: mating out, dam+ strain
[3] = system: Tnp sC7v2.0 (sC7(157,171,217)) R8C,E58V,E344K,L372Q; test: cell_activity; conditions: mating out, dam+ strain
[4] = system: sC7 L372Q minus one R8C,E58V,A157T,T171S,D217A,E344K; test: cell_activity; conditions: mating out, dam+ strain
[5] = target: Tnp sC7 R8C,E58V,A157T,T171S,D217A,E344K,L372Q (UniProt Q46731); test: cell_activity; conditions: mating out
[6] = system: sC7 D217A minus one R8C,E58V,A157T,T171S,E344K,L372Q; test: cell_activity; conditions: mating out, dam+ strain
Tnp T171S plus one T171S = test: cell_activity; conditions: mating out, dam+ strain
Tnp E344K plus one E344K = test: cell_activity; conditions: mating out, dam+ strain
[7] = system: Tnp sC7(171,217) R8C,E58V,A157T,E344K,L372Q; test: cell_activity; conditions: mating out, dam+ strain
[8] = system: Tnp sC7(157,171) R8C,E58V,D217A,E344K,L372Q; test: cell_activity; conditions: mating out, dam+ strain
Tnp E58V plus one E58V = test: cell_activity; conditions: mating out, dam+ strain
[9] = system: Tnp sC7(157,217) R8C,E58V,T171S,E344K,L372Q; test: cell_activity; conditions: mating out, dam+ strain
[10] = system: sC7 A157T minus one R8C,E58V,T171S,D217A,E344K,L372Q; test: cell_activity; conditions: mating out, dam+ strain
[11] = system: sC7 T171S minus one R8C,E58V,A157T,D217A,E344K,L372Q; test: cell_activity; conditions: mating out, dam+ strain
[12] = target: Tn5 transposase wild-type (Tnp WT) (UniProt Q46731); test: cell_activity; conditions: mating out
[13] = system: sC7 R8C minus one E58V,A157T,T171S,D217A,E344K,L372Q; test: cell_activity; conditions: mating out, dam+ strain
[14] = system: sC7 E344K minus one R8C,E58V,A157T,T171S,D217A,L372Q; test: cell_activity; conditions: mating out, dam+ strain
Tnp D217A plus one D217A = test: cell_activity; conditions: mating out, dam+ strain
Tnp A157T plus one A157T = test: cell_activity; conditions: mating out, dam+ strain
Tnp R8C plus one R8C = test: cell_activity; conditions: mating out, dam+ strain
[15] = dam methylation of adenines in the two GATC sites (four methyl groups per end)
[16] = dam methylation of adenines in the two GATC sites (four methyl groups per end), dam+ strain

Dam-methylated Tn5 inside end (IEME)
activity (% supercoiled plasmid converted) [1]: 66 | activity (transposition frequency) (Tnp L372Q plus one L372Q; dam methylation of adenines in the two GATC sites (four methyl groups per end), 8.9-fold over WT): 8.9e-08 | activity (transposition frequency) [2, 15]: 1.8e-06 | activity (transposition frequency) [3, 15]: 0.0074 | activity (transposition frequency) [4, 15]: 0.00026 | activity (transposition frequency) [5, 16]: 0.0026 | activity (transposition frequency) [6, 15]: 0.0037 | activity (transposition frequency) (Tnp T171S plus one T171S; [15]): 5.6e-09 | activity (transposition frequency) (Tnp E344K plus one E344K; dam methylation of adenines in the two GATC sites (four methyl groups per end), 4.3-fold over WT): 4.3e-08 | activity (transposition frequency) [7, 15]: 0.0058 | activity (transposition frequency) [8, 15]: 0.0065 | activity (transposition frequency) (Tnp E58V plus one E58V; dam methylation of adenines in the two GATC sites (four methyl groups per end), 40000-fold over WT): 0.0004 | activity (transposition frequency) [9, 15]: 0.0084 | activity (transposition frequency) [10, 15]: 0.0031 | activity (transposition frequency) [11, 15]: 0.0028 | activity (transposition frequency) [12, 16]: 1e-08 | activity (transposition frequency) [13, 15]: 0.0031 | activity (transposition frequency) [14, 15]: 0.00055

Tn5 inside end (IE), unmethylated
activity (transposition frequency) ([5]; dam- strain): 0.0018 | activity (transposition frequency) ([12]; dam- strain): 6.5e-05

Tn5 outside end (OE)
activity (transposition frequency) (Tnp L372Q plus one L372Q): 1.1e-05 | activity (transposition frequency) [2]: 1.1e-06 | activity (transposition frequency) [3]: 7.1e-06 | activity (transposition frequency) [4]: 2.8e-07 | activity (transposition frequency) ([5]; dam- strain, 3.3e-6 in dam+ strain): 3.7e-05 | activity (transposition frequency) [6]: 4.5e-06 | activity (transposition frequency) (Tnp T171S plus one T171S): 1.8e-06 | activity (transposition frequency) (Tnp D217A plus one D217A): 3.4e-06 | activity (transposition frequency) (Tnp E344K plus one E344K): 6.8e-07 | activity (transposition frequency) [7]: 1.18e-05 | activity (transposition frequency) [8]: 7e-06 | activity (transposition frequency) (Tnp E58V plus one E58V): 1.4e-06 | activity (transposition frequency) [9]: 2.25e-05 | activity (transposition frequency) (Tnp A157T plus one A157T): 6.6e-07 | activity (transposition frequency) [10]: 4e-06 | activity (transposition frequency) [11]: 2.6e-06 | activity (transposition frequency) ([12]; dam- strain, 3.1e-6 in dam+ strain): 6.5e-05 | activity (transposition frequency) [13]: 6e-06 | activity (transposition frequency) (Tnp R8C plus one R8C): 4e-07 | activity (transposition frequency) [14]: 1.7e-05
